One molecule from patent US20030095977A1 (published 2003) can be followed below.

This experiment deals with T1, CD20 (human, UniProt P11836 1-297).
T1 construct: whole, on cells; also called CD20 on Ramos cells
T1 sequence (looked up): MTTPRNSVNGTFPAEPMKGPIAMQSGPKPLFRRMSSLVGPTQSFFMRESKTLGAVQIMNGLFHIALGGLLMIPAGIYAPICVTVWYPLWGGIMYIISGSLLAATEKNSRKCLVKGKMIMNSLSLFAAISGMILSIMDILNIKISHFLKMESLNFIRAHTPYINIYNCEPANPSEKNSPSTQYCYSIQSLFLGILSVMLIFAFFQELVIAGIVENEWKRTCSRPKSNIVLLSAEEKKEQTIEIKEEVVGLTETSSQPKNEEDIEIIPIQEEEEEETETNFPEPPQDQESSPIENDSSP
Put plainly: saturation binding of radiolabeled mAb to Ramos cells (10^7 cells), nonlinear regression; avidity.

B1: B9E9 mAb (murine anti-CD20 antibody B9E9) (antibody, V domains shown)
VH: QVQLVQSGAELVKPGASVKMSCKASGYTFTSYNMHWVKQTPGQGLEWIGAIYPGNGDTSYNQKFKGKATLTADKSSSTAYMQLSSLTSEDSAVYYCARAQLRPNYWYFDVWGAGTTVTVSS
VL: DIVLSQSPAILSASPGEKVTMTCRASSSVSYMHWYQQKPGSSPKPWIYATSNLASGVPARFSGSGSGTSYSLTISRVEAEDAATYYCQQWISNPPTFGAGTKLELK
With B1, the Ka came out at 1.02e+08 M⁻¹ and the Kd amounted to 9.75 nM.
